Molecular target: T1, his-tagged NCOA4 (383–522nd) recombinant protein, WT (human), Q13772
T1 chain: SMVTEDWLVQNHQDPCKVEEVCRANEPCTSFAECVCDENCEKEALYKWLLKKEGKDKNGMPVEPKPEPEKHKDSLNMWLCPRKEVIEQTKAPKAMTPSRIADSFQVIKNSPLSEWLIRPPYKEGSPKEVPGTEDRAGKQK
Assay: nonreducing gel electrophoresis; purified his-tagged NCOA4 (383–522nd) WT or mutants on a nonreducing gel, with or without β-ME (10 mM) or DTT (5 mM); the reductants converted the dimer into monomers
Conditions: remark: other sources report otherwise

B1: his-tagged NCOA4 (383–522nd) recombinant protein, WT, Q13772-1 383-522 (domain or fragment)
chain: SMVTEDWLVQNHQDPCKVEEVCRANEPCTSFAECVCDENCEKEALYKWLLKKEGKDKNGMPVEPKPEPEKHKDSLNMWLCPRKEVIEQTKAPKAMTPSRIADSFQVIKNSPLSEWLIRPPYKEGSPKEVPGTEDRAGKQK
  stoichiometry N: 2
